The labels stand for the following.
B1: BOG-MBP chimeric protein (complete rBOG fused to the carboxy-terminal of maltose binding protein, pMAL-P2-BOG) (other, not shown: large carriers)
chain: MVSPTKAVIVPGNGGGDVATHGWYGWVRKGLEQIPGFQCLAKNMPDPITARESIWLPFMETELHCDEKTIIIGHSSGAIAAMRYAETHQVYALILVSAYTSDLGDENERASGYFSRPWQWEKIKANCPHIIQFGSTDDPFLPWKEQQEVADSWTPNCTNSLTVVTFRTQSSMN
notes: Any vector-encoded linker between MBP and BOG is not described; also called fusion protein BOG-MBP; chimeric BOG-MBP
B2: pRb (retinoblastoma gene product), endogenous in rat liver epithelial cell extracts (other)
chain: PPKAPRRTAAAEPPPPPPPPPEDDPAQDSDPEELPLIRLEFEKIEEPEFIALCQKLKVPDHVRERAWLTWEKVSSVDGILEGYIQKKKELWGICIFIAAVDLDEMPFTFTELQKSIETSVYKFFDLLKEIDTSTKVDNAVSRLLKKYNVLCALYSKLERTCGLIYLTQPSSGLSTEINSMLVLKVSWITFLLAKGEVVQMEDDLVISFQLMLCVLDYFIKLSPPALLREPYKTAATPINGSPRTPRRGQNRSARIAKQLESDTRTIEVLCKEHECNVDEVKNVYFKNFIPFISSLGIVSSNGLPELESLSKRYEEVYLKSKDLDARLFLDHDKTLQTDTIDSFETERTPRKSNPDEEANMVTPHTPVRTVMNTIQQLMVILNSASDQPSENLISYFSNCTVNPKENILKRVKDVGHIFKEKFASAVGQGCIDIGAQRYKLGVRLYYRVMESMLKSEEERLSIQNFSKLLNDNIFHMSLLACALEVVMATYSRSMLQNLDSGTDLSFPWILNVLNLKAFDFYKVIESFIKVEANLTREMIKHLERCEHRIMESLAWLSDSPLFDLIKQSKDGEGPDHLESACSLSLPLQSNHTAADMYLSPIRSPKKRTSTTRVNSAANTETQAASAFHTQKPLKSTSLSLFYKKVYRLAYLRLNTLCARLLSDHPELEHIIWTLFQHTLENEYELMKDRHLDQIMMCSMYGICKVKNIDLKFKIIVTAYKDLPHAAQETFKRVLIREEEFDSIIVFYNSVFMQRLKTNILQYASTRPPTLSPIPHIPRSPYKFSSSPLRIPGGNIYISPLKSPYKISEGLPTPTKMTPRSRILVSIGESFGTSEKFQKINQMVCNSDRVLKRSAEGGNPPKPLKKLRFDIEGSDEADGSKHLPAESKFQQKLAEMTSTRTRMQKQKLNDSMEISNKEEK

In experiment [1] the target is B2. The experiment can be described thus: precipitation of pRb from whole cell lysates by amylose-purified BOG-MBP.
For experiment [2], the target named is maltose binding protein without BOG (UniProt P0AEX9 27-392 = MBP). The experiment can be described thus: precipitation from whole cell lysates with amylose-purified protein.

On to B1, for which the binding result in experiment [1] is recorded as “binds”. For the molecule B2, the binding result in experiment [2] is recorded as “no binding”.

The values above are taken from patent US20040139485A1 (US Dept. of Health and Human Services, published 2004).
